Measurements published in US20030165997, “Zinc finger domain libraries” (published 2003).

Legend:
[1] = biological target: T1, Zif268 zinc finger protein (three fingers) (UniProt P08046 SEQ:1-89); test: EMSA; 20 mM Tris pH 7.7, 120 mM NaCl, 5 mM MgCl2, 20 uM ZnSO4, RT; yeast growth +++; 28-fold repression in human cells (Table 8)
ZFP 15 VSNV-CSNR1-RSNR = ZFP 15 VSNV-CSNR1-RSNR (synthetic); test: cell_activity; HEK293 luciferase repression; settings: tags: HA tag and NLS (P3 vector)
Protocol: (§1) The in vivo activity assay for a particular three-finger protein was carried out as follows. HEK 293 cells were transfected with four plasmids: 14 ng of a plasmid expressing the particular three-finger protein; 14 ng of the reporter plasmid described above; 70 ng of a plasmid that expresses GAL4-VP 16; and 1.4 ng of a plasmid that expresses Renillar luciferase. The GAL4-VP 16 activates transcription of the minimal synthetic promoter in the reporter so that the repression effected by a particular three-finger protein could be clearly detected and compared to other three-finger proteins. The plasmid expressing Renillar luciferase provides a control of transfection efficiency.
(§2) Lipofectamine (Gibco-BRL) was used for the transfection procedures. Cells were transfected at 30-50% confluency in wells of a 96 well plate. The cells were incubated for two days prior to harvesting for the luciferase assay. Then luciferase activities were measured using the Dual-Luciferase™ Reporter Assay System (Promega). The observed firefly luciferase activity was normalized using the observed level of Renilla luciferase. The extent of repression or “fold-repression” was calculated by dividing a value for normalized reporter expression in the absence of a zinc finger protein by a value for normalized reporter expression in the presence of the zinc finger protein.
(§3) A total of 153 three-finger chimeric proteins were constructed from both the “zinc finger protein-first” and the “target site-first” approaches. These proteins were tested using the transient cotransfection assay described in Example 68.

ZFP 16 QSHR2-RDER1-RSHR = ZFP 16 QSHR2-RDER1-RSHR (synthetic); test: cell_activity; HEK293 luciferase repression; settings: tags: HA tag and NLS (P3 vector)
Protocol: as §1, §2, §3

ZFP 18 RDER1-QSSR1-QSHT = ZFP 18 RDER1-QSSR1-QSHT (synthetic); test: cell_activity; HEK293 luciferase repression; settings: tags: HA tag and NLS (P3 vector)
Protocol: as §1, §2, §3

ZFP 19 RDER1-VSSR-QSHT = ZFP 19 RDER1-VSSR-QSHT (synthetic); test: cell_activity; HEK293 luciferase repression; settings: tags: HA tag and NLS (P3 vector)
Protocol: as §1, §2, §3

ZFP 20 QSNR3-QSHR2-RSNR = ZFP 20 QSNR3-QSHR2-RSNR (synthetic); test: cell_activity; HEK293 luciferase repression; settings: tags: HA tag and NLS (P3 vector)
Protocol: as §1, §2, §3

ZFP 22 RSNR-VSSR-RSHR = ZFP 22 RSNR-VSSR-RSHR (synthetic); test: cell_activity; HEK293 luciferase repression; settings: tags: HA tag and NLS (P3 vector)
Protocol: as §1, §2, §3

ZFP 23 RDHT-RSNR-QSNR3 = ZFP 23 RDHT-RSNR-QSNR3 (synthetic); test: cell_activity; HEK293 luciferase repression; settings: tags: HA tag and NLS (P3 vector)
Protocol: as §1, §2, §3

ZFP 24 CSNR1-QSHT-RSNR = ZFP 24 CSNR1-QSHT-RSNR (synthetic); test: cell_activity; HEK293 luciferase repression; settings: tags: HA tag and NLS (P3 vector)
Protocol: as §1, §2, §3

ZFP 25 QSNR3-RDER1-RSNR = ZFP 25 QSNR3-RDER1-RSNR (synthetic); test: cell_activity; HEK293 luciferase repression; same pair listed again as entry 61 with 1.5; settings: tags: HA tag and NLS (P3 vector)
Protocol: as §1
Lipofectamine (Gibco-BRL) was used for the transfection procedures. Cells were transfected at 30-50% confluency in wells of a 96 well plate. The cells were incubated for two days prior to harvesting for the luciferase assay. Then luciferase activities were measured using the Dual-Luciferase™ Reporter Assay System (Promega). The observed firefly luciferase activity was normalized using the observed level of Renilla luciferase. The extent of repression or “fold-repression” was calculated by dividing a value for normalized reporter expression in the absence of a zinc finger protein by a value for normalized reporter expression in the presence of the zinc finger protein. […]

ZFP 26 QSNR3-QSNV2-RSHR = ZFP 26 QSNR3-QSNV2-RSHR (synthetic); test: cell_activity; HEK293 luciferase repression; settings: tags: HA tag and NLS (P3 vector)
Protocol: as §1, §2, §3

ZFP 27 RSHR-RDER1-RSHR = ZFP 27 RSHR-RDER1-RSHR (synthetic); test: cell_activity; HEK293 luciferase repression; settings: tags: HA tag and NLS (P3 vector)
Protocol: as §1, §2, §3

ZFP 28 VSSR-QSNR3-RDER1 = ZFP 28 VSSR-QSNR3-RDER1 (synthetic); test: cell_activity; HEK293 luciferase repression; settings: tags: HA tag and NLS (P3 vector)
Protocol: as §1, §2, §3

ZFP 29 QSNR3-RDHT-RSNR = ZFP 29 QSNR3-RDHT-RSNR (synthetic); test: cell_activity; HEK293 luciferase repression; settings: tags: HA tag and NLS (P3 vector)
Protocol: as §1, §2, §3

ZFP 30 RSHR-RSHR-QSHR2 = ZFP 30 RSHR-RSHR-QSHR2 (synthetic); test: cell_activity; HEK293 luciferase repression; settings: tags: HA tag and NLS (P3 vector)
Protocol: as §1, §2, §3

[2] = biological target: T1, Zif268 zinc finger protein (three …); test: EMSA; Zn2+, Mg2+, pH 7.7, RT; no yeast growth; 1.3-fold repression (Table 8)
[3] = biological target: T1, Zif268 zinc finger protein (three …); test: EMSA; Zn2+, Mg2+, pH 7.7, RT; no yeast growth; 1.5-fold repression (Table 8)

Sequence of ZFP 30 RSHR-RSHR-QSHR2 (synthetic) (chain, as listed by the source): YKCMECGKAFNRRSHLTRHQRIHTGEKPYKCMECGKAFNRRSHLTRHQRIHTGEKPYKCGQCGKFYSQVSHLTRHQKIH
Sequence of ZFP 28 VSSR-QSNR3-RDER1 (synthetic) (chain, as listed by the source): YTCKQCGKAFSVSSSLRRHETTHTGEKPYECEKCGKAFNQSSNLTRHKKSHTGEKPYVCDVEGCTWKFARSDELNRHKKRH
Sequence of ZFP 22 RSNR-VSSR-RSHR (synthetic) (chain, as listed by the source): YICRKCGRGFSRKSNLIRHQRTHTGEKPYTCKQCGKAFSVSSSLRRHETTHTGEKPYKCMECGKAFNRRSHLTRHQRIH
Sequence of ZFP 18 RDER1-QSSR1-QSHT (synthetic) (chain, as listed by the source): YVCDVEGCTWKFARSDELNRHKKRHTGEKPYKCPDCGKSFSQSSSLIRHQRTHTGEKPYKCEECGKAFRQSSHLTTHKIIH
Sequence of ZFP 24 CSNR1-QSHT-RSNR (synthetic) (chain, as listed by the source): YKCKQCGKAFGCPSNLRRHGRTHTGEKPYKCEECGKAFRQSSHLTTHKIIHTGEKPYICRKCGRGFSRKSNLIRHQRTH
Sequence of ZFP 23 RDHT-RSNR-QSNR3 (synthetic) (chain, as listed by the source): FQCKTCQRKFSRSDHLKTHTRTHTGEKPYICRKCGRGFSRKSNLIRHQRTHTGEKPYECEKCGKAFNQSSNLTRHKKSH
Sequence of ZFP 20 QSNR3-QSHR2-RSNR (synthetic) (chain, as listed by the source): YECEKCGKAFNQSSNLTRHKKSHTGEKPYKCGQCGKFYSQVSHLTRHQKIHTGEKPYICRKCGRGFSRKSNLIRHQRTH
Sequence of ZFP 27 RSHR-RDER1-RSHR (synthetic) (chain, as listed by the source): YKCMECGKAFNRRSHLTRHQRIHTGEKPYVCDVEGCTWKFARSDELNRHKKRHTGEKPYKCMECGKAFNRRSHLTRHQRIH
Sequence of ZFP 26 QSNR3-QSNV2-RSHR (synthetic) (chain, as listed by the source): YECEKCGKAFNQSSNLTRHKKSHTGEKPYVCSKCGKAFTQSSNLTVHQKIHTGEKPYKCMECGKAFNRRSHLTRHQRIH
Sequence of ZFP 19 RDER1-VSSR-QSHT (synthetic) (chain, as listed by the source): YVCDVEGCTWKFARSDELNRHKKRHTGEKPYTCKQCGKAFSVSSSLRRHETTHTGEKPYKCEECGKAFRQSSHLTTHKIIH
Sequence of ZFP 16 QSHR2-RDER1-RSHR (synthetic) (chain, as listed by the source): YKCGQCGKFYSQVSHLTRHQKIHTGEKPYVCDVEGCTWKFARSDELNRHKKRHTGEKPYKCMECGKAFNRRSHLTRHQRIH
Sequence of ZFP 25 QSNR3-RDER1-RSNR (synthetic) (chain, as listed by the source): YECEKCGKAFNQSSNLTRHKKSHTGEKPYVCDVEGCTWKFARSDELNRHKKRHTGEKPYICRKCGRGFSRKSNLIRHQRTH
Sequence of ZFP 15 VSNV-CSNR1-RSNR (synthetic) (chain, as listed by the source): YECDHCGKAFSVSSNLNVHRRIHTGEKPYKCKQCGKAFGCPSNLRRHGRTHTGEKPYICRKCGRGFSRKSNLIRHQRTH
Sequence of ZFP 29 QSNR3-RDHT-RSNR (synthetic) (chain, as listed by the source): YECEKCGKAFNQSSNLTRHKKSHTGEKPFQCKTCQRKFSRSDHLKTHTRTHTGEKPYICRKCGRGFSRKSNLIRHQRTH

B1: GCGT probe (dsDNA)
DNA 1: CCGGGTCGCGCGTGGGCGGTACCG
DNA 2: TCGACGGTACCGCCCACGCGCGAC
Kd [1]: 0.024 nM

B2: target 15 (dsDNA)
DNA 1: GAGGACAATG
DNA 2: CATTGTCCTC
activity (ZFP 15 VSNV-CSNR1-RSNR): 2.5 fold repression

B3: target 16 (dsDNA)
DNA 1: GGGGCGGGAT
DNA 2: ATCCCGCCCC
activity (ZFP 16 QSHR2-RDER1-RSHR): 2.3 fold repression

B4: target 18 (dsDNA)
DNA 1: CGAGCAGCG
DNA 2: CGCTGCTCG
activity (ZFP 18 RDER1-QSSR1-QSHT): 2.2 fold repression

B5: target 19 (dsDNA)
DNA 1: CGAGTTGCG
DNA 2: CGCAACTCG
activity (ZFP 19 RDER1-VSSR-QSHT): 2.1 fold repression

B6: target 20 (dsDNA)
DNA 1: GAGGGAGAAG
DNA 2: CTTCTCCCTC
activity (ZFP 20 QSNR3-QSHR2-RSNR): 2.1 fold repression

B7: target 22 (dsDNA)
DNA 1: GGGGTTGAG
DNA 2: CTCAACCCC
activity (ZFP 22 RSNR-VSSR-RSHR): 2.1 fold repression

B8: target 23 (dsDNA)
DNA 1: GAAGAGAGGT
DNA 2: ACCTCTCTTC
activity (ZFP 23 RDHT-RSNR-QSNR3): 2.1 fold repression

B9: target 24 (dsDNA)
DNA 1: GAGTGAGACC
DNA 2: GGTCTCACTC
activity (ZFP 24 CSNR1-QSHT-RSNR): 2.1 fold repression

B10: target 25 (dsDNA)
DNA 1: GAGGCGGAAA
DNA 2: TTTCCGCCTC
activity (ZFP 25 QSNR3-RDER1-RSNR): 2.1 fold repression

B11: target 26 (dsDNA)
DNA 1: GGGAAAGAAC
DNA 2: GTTCTTTCCC
activity (ZFP 26 QSNR3-QSNV2-RSHR): 2 fold repression

B12: target 27 (dsDNA)
DNA 1: GGGGTGGGG
DNA 2: CCCCACCCC
activity (ZFP 27 RSHR-RDER1-RSHR): 2 fold repression

B13: target 28 (dsDNA)
DNA 1: GCGGAAGTTC
DNA 2: GAACTTCCGC
activity (ZFP 28 VSSR-QSNR3-RDER1): 2 fold repression

B14: target 29 (dsDNA)
DNA 1: GAGTGGGAAA
DNA 2: TTTCCCACTC
activity (ZFP 29 QSNR3-RDHT-RSNR): 2 fold repression

B15: target 30 (dsDNA)
DNA 1: GGAGGGGGGC
DNA 2: GCCCCCCTCC
activity (ZFP 30 RSHR-RSHR-QSHR2): 2 fold repression

B16: ACAT probe (dsDNA)
DNA 1: CCGGGTCGGACATGGGCGGTACCG
DNA 2: TCGACGGTACCGCCCATGTCCGAC
Kd [2]: 1.3 nM

B17: GCTT probe (dsDNA)
DNA 1: CCGGGTCGTGCTTGGGCGGTACCG
DNA 2: TCGACGGTACCGCCCAAGCACGAC
Kd [3]: 2.1 nM
